Molecular target: NRR-containing SynNotch receptor (Homo sapiens, UniProt P46531, chimera)
Experiment: immunostaining of cells or tissue

Sequence of NRR-containing SynNotch receptor (P46531 whole entry, looked up, change not shown): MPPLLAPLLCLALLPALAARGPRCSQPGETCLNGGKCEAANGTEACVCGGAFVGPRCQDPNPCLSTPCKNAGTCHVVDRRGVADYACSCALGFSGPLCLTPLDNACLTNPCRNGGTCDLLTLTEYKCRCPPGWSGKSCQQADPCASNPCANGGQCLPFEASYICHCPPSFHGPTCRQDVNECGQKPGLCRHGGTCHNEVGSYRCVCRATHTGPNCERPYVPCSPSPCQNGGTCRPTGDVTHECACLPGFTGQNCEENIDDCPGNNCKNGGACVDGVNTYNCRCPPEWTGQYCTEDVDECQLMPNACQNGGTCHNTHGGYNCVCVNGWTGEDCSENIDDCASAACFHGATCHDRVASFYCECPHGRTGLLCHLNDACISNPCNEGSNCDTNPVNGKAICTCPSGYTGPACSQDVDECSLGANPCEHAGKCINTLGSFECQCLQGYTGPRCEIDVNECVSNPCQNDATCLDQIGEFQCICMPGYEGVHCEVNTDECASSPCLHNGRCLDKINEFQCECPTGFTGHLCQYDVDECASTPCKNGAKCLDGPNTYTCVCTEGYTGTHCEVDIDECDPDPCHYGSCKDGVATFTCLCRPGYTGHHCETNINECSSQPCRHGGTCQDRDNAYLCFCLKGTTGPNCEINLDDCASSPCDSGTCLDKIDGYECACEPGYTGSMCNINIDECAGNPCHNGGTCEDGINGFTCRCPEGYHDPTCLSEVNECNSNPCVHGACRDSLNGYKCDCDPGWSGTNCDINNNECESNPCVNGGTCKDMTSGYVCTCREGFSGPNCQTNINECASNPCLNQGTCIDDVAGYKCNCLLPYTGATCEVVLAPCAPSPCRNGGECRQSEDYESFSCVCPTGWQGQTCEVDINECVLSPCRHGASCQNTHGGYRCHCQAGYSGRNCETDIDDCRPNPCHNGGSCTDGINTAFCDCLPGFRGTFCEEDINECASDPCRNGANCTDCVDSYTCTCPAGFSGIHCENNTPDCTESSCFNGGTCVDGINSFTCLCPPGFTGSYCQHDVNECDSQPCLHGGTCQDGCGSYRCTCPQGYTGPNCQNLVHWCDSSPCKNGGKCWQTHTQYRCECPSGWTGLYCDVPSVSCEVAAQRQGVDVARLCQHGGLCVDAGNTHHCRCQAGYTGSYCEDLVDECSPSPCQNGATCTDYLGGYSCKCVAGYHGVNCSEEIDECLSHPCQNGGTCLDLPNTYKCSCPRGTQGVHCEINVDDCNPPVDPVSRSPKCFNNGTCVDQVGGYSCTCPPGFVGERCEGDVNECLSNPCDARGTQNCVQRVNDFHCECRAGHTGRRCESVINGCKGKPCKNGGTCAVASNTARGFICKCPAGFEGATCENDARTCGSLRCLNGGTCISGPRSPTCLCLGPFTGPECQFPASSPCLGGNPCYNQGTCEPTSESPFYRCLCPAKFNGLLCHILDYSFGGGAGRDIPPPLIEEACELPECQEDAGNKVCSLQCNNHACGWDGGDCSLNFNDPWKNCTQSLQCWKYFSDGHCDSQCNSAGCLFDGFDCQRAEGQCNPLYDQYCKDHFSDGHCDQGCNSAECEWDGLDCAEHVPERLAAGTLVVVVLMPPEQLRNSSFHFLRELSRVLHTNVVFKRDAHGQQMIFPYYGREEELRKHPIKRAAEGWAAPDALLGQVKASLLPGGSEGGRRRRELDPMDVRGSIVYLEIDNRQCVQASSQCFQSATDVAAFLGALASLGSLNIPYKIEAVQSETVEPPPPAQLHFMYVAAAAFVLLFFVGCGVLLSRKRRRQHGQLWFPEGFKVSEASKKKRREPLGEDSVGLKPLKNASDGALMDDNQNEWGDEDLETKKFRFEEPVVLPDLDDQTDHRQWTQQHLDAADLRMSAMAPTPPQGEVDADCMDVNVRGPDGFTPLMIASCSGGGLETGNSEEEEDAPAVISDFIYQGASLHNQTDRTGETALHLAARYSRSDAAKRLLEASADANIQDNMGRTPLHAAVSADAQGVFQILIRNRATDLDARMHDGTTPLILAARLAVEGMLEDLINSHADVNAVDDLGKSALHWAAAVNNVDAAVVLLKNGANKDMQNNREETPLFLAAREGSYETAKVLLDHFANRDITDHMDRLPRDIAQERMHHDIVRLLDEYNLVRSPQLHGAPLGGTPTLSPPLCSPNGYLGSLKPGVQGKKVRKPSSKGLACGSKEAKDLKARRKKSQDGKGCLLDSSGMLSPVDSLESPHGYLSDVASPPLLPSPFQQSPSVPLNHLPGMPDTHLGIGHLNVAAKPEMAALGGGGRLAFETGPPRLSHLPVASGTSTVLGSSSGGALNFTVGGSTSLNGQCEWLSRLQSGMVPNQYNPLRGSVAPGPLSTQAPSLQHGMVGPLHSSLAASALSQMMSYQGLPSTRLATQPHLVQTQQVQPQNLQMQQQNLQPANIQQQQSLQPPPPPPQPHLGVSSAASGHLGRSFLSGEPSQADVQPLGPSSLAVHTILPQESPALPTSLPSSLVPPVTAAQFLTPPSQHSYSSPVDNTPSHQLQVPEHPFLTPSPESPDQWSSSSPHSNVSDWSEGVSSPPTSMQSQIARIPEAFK

- binding result: binds
B1: soluble anti-NRR scFv (scFv, V domains shown)
VH: EVQLVESGGGLVQPGGSLRLSCAASGFTFSSYWIHWVRQAPGKGLEWVARINPPNRSNQYADSVKGRFTISADTSKNTAYLQMNSLRAEDTAVYYCARGSGFRWVMDYWGQGTLVTVSS
VL: DIQMTQSPSSLSASVGDRVTITCRASQDVSTAVAWYQQKPGKAPKLLIYSASFLYSGVPSRFSGSGSGTDFTLTISSLQPEDFATYYCQQFYTTPSTFGQGTKVEIK

— paper doi:10.1101/2022.05.01.490205 (bioRxiv, 2022)
